Test results: patent US20240109963A1

B1: Claudin 18.2-3C2 (VHH)
VHH: QVQLVESGGGLVQPGGSLRLSCAASGFTFSNYAMYWVRQAPGKGPEWVSVISGGGGVISYADSVKGRFTISRDNAKNTMYLQMNSLKPEDTAVYYCNAQSAVWWENDYWGQGTQVTVSS
B2: Claudin 18.2-4G1 (VHH)
VHH: QVQLVESGGGVVQTGGSLRLTCEISGAALSSYTMGWFRQAPGKEREFVAAISWGGSITWYADSVKGRFTISRDNAKNTVYLQMNSLKPEDTAVYYCHAEGQFGALSYPKDYWGQGTQVTVSS

Experiments:
[1] = molecular target: Claudin 18.1 on CHO cells (CHO+ Claudin 18.1) (UniProt P56856); assay: flow cytometry, unpurified culture supernatant on CHO_18.1 cells, anti-c-Myc 9E10 + Avidin-PE; parental CHO in the same table: 1.71 %
[2] = molecular target: Claudin 18.1 on CHO cells (CHO+ Claudin 18.1) (UniProt P56856); assay: flow cytometry, unpurified culture supernatant on CHO_18.1 cells, anti-c-Myc 9E10 + Avidin-PE; parental CHO in the same table: 1.25 %

Sequence of Claudin 18.1 on CHO cells (CHO+ Claudin 18.1) (P56856 whole entry): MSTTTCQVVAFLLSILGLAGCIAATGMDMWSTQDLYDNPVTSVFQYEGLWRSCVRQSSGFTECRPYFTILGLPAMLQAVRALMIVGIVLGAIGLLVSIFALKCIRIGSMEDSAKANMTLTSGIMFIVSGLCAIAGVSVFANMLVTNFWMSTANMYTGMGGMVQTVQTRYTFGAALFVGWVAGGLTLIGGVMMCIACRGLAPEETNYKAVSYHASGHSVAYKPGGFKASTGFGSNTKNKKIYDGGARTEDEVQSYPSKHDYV

Binder	PE-Positive Cells (%) [1] [%]	PE-Positive Cells (%) [2] [%]
B1	7.32	
B2		6.79
